According to patent publication US20210070882A1 (Hoffmann-La Roche, published 2021):
Where “and” joins values, the source holds several entries; their conditions need not be identical. Equal entries are not always repeated. Where two headings read alike, the source gives them in different places.

T1: human CD19 (human, UniProt P15391 20-556)
T1 sequence (looked up): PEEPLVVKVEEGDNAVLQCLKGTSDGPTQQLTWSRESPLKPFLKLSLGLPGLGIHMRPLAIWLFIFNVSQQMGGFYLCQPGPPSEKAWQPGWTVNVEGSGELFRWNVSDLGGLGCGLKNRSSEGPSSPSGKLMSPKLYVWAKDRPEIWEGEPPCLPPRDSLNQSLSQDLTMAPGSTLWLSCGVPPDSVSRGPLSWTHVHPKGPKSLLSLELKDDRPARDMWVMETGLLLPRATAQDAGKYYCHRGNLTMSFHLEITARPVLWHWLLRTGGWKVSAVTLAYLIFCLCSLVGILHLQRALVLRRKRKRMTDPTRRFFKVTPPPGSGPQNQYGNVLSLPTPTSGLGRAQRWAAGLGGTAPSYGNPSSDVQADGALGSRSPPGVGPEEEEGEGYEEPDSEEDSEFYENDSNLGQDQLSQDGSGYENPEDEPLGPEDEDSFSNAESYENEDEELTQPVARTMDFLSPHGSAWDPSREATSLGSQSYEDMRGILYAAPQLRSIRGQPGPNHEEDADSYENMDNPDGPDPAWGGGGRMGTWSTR


Assays:
[1] = molecular target: T1, human CD19; assay: cell-based or functional assay
[2] = molecular target: T1, human CD19; assay: cell-based or functional assay; remark: listed apart in the source
[3] = molecular target: T1, human CD19; assay: flow cytometry on CD19-expressing Raji cells
Method: (§1) The binding of CD19 IgGs and CD19 TCBs to human CD19- and CD3-expressing target cells was tested using CD19-expressing Burkitt's lymphoma cells (Raji) and CD3-expressing immortalized T lymphocyte line (Jurkat). Briefly, cells were harvested, counted, checked for viability and resuspended at 2×10⁶ cells/ml in FACS buffer (100 μl PBS 0.1% BSA). 100 μl of cell suspension (containing 0.2×10⁶ cells) were incubated in round-bottom 96-well plate for 30 min at 4° C. with increasing concentrations of the CD19 IgGs and CD19 TCBs (10 pM-200 nM), washed twice with cold PBS 0.1% BSA, re-incubated for further 30 min at 4° C. with the PE-conjugated AffiniPure F(ab′)2 Fragment goat anti-human IgG Fcg Fragment Specific secondary antibody (Jackson Immuno Research Lab PE #109-116-170), washed twice with cold PBS 0.1% BSA and immediately analyzed by FACS using a FACS Cantoll (Software FACS Diva) by gating live, DAPI-negative, cells.

[4] = molecular target: T1, human CD19; assay: cell-based or functional assay; remark: listed apart in the source
[5] = molecular target: T1, human CD19; assay: cell-based or functional assay; remark: listed apart in the source
[6] = molecular target: T1, human CD19; assay: cell-based or functional assay; remark: listed apart in the source
[7] = molecular target: T1, human CD19; assay: cell-based or functional assay; remark: listed apart in the source
[8] = molecular target: T1, human CD19; assay: cell-based or functional assay; remark: listed apart in the source
[9] = molecular target: T1, human CD19; assay: cell-based or functional assay; remark: listed apart in the source
[10] = molecular target: T1, human CD19; assay: flow cytometry on Nalm-6 cells and normal human B cells
Method: The binding of different CD19 TCB antibody formats (based on 8B8 clone) was assessed on human CD19-expressing target cells (Nalm-6 and normal human B cells) and human CD3-expressing target cells (CD4, CD8 T cells and Jurkat cells). The following CD19 TCB antibody formats were tested: molecule B as shown in FIG. 2B (named in this example “CD19 TCB_2+1_no charges_inverted”) and molecule A as shown in FIG. 2A (named in this example “CD19 TCB_2+1_charges CD19_inverted”). […] Briefly, cells were harvested, counted, checked for viability and resuspended at 1.5×10⁶ cells/ml in FACS buffer (100 μl PBS 0.1% BSA).

[11] = molecular target: T1, human CD19; assay: flow cytometry on CD19-expressing Raji cells; remark: listed apart in the source
Method: as §1

Row | Binder | Tumor lysis EC50 (pM), Nalm-6 [1] | Tumor lysis EC50 (pM), SUDHL-4 [1] | EC50 [3] | Tumor cell lysis Z-138 cells (21 h), EC50 [4] | Tumor cell lysis Z-138 cells (21 h), EC50 (pM) [4] | T cell activation EC50, CD25/CD4, Nalm-6 [5] | T cell activation EC50, CD25/CD4, SUDHL-4 [5] | T cell activation EC50, CD25/CD8, Nalm-6 [5] | T cell activation EC50, CD25/CD8, SUDHL-4 [5] | T cell activation EC50, CD69/CD4, Nalm-6 [5] | T cell activation EC50, CD69/CD4, SUDHL-4 [5] | T cell activation EC50, CD69/CD8, Nalm-6 [5] | T cell activation EC50, CD69/CD8, SUDHL-4 [5] | T cell activation EC50 upon Z-138 lysis, CD25/CD4 [7] | T cell activation EC50 upon Z-138 lysis, CD25/CD8 [7] | T cell activation EC50 upon Z-138 lysis, CD69/CD4 [7] | T cell activation EC50 upon Z-138 lysis, CD69/CD8 [7] | further results
1 | Molecule B: 2+1 IgG CrossFab, inverted, without charge modifications (CH1/CL exchange in CD3 binder, parental murine CD19 binder 8B8) (bispecific antibody, also called CD19 TCB_8B8; CD19 TCB_8 B8) chain 1: EVQLQQSGPELVKPGASVKMACKASGYTFTDYIMHWVKQKTGQGLEWIGYINPYNDGSKYTEKFNGKATLTSDKSSITAYMELSSLTSEDSAVYYCARGTYYYGSALFDYWGQGTTLTVSSASTKGPSVFPLAPSSKSTSGGTAALGCLVKDYFPEPVTVSWNSGALTSGVHTFPAVLQSSGLYSLSSVVTVPSSSLGTQTYICNVNHKPSNTKVDKKVEPKSCDKTHTCPPCPAPEAAGGPSVFLFPPKPKDTLMISRTPEVTCVVVDVSHEDPEVKFNWYVDGVEVHNAKTKPREEQYNSTYRVVSVLTVLHQDWLNGKEYKCKVSNKALGAPIEKTISKAKGQPREPQVCTLPPSRDELTKNQVSLSCAVKGFYPSDIAVEWESNGQPENNYKTTPPVLDSDGSFFLVSKLTVDKSRWQQGNVFSCSVMHEALHNHYTQKSLSLSP chain 2: not shown chain 3: QAVVTQEPSLTVSPGGTVTLTCGSSTGAVTTSNYANWVQEKPGQAFRGLIGGTNKRAPGTPARFSGSLLGGKAALTLSGAQPEDEAEYYCALWYSNLWVFGGGTKLTVLSSASTKGPSVFPLAPSSKSTSGGTAALGCLVKDYFPEPVTVSWNSGALTSGVHTFPAVLQSSGLYSLSSVVTVPSSSLGTQTYICNVNHKPSNTKVDKKVEPKSC chain 4: DAVMTQTPLSLPVSLGDQASISCRSSQSLENSNGNTYLNWYLQKPGQSPQLLIYRVSKRFSGVLDRFSGSGSGTDFTLKISRVEAEDLGVYFCLQLTHVPYTFGGGTKLEIKRTVAAPSVFIFPPSDEQLKSGTASVVCLLNNFYPREAKVQWKVDNALQSGNSQESVTEQDSKDSTYSLSSTLTLSKADYEKHKVYACEVTHQGLSSPVTKSFNRGEC | 1.7 pM | 0.8 pM | 4.1 nM and 0.795 µg/mL | 0.8 ng/mL | 4.1 pM | 3.3 pM | 3.9 pM | 0.7 pM | 2.1 pM | 0.9 pM | 2 pM | 0.8 pM | 2.7 pM | 2.4 pM | 2.4 pM | 1.8 pM | 2.7 pM | T cell activation EC50 upon lysis of Z-138 cells, CD25/CD4 [2]: 3.22 pM; T cell activation EC50 upon lysis of Z-138 cells, CD25/CD8 [2]: 1.86 pM; T cell activation EC50 upon lysis of Z-138 cells, CD69/CD4 [2]: 1.01 pM; T cell activation EC50 upon lysis of Z-138 cells, CD69/CD8 [2]: 0.83 pM; T cell activation EC50 upon lysis of Z-138 cells, CD107/CD4 [2]: 1.68 pM; T cell activation EC50 upon lysis of Z-138 cells, CD107/CD8 [2]: 1.32 pM; Tumor cell lysis Z-138 cells (21 h), EC50 [6]: 0.62 ng/mL; Tumor cell lysis Z-138 cells (21 h), EC50 (pM) [6]: 3.2 pM; Tumor cell lysis Z-138 cells (21 h), EC50 [8]: 0.62 ng/mL; Tumor cell lysis Z-138 cells (21 h), EC50 (pM) [8]: 3.16 pM; T cell activation EC50 upon lysis of Z-138 cells, CD25/CD4 [9]: 2.77 pM; T cell activation EC50 upon lysis of Z-138 cells, CD25/CD8 [9]: 1.7 pM; T cell activation EC50 upon lysis of Z-138 cells, CD69/CD4 [9]: ~0.81 pM; T cell activation EC50 upon lysis of Z-138 cells, CD69/CD8 [9]: 0.82 pM; T cell activation EC50 upon lysis of Z-138 cells, CD107/CD4 [9]: 1.37 pM; T cell activation EC50 upon lysis of Z-138 cells, CD107/CD8 [9]: 1.22 pM
2 | DP47 TCB (untargeted TCB having an identical structure as molecule B but with the DP47 binder instead of a CD19 binder) (bispecific antibody, Negative control; also called untargeted TCB control; copies: 1 + 1 + 1 + 2) heavy 1: not shown heavy 2: not shown light 1: QAVVTQEPSLTVSPGGTVTLTCGSSTGAVTTSNYANWVQEKPGQAFRGLIGGTNKRAPGTPARFSGSLLGGKAALTLSGAQPEDEAEYYCALWYSNLWVFGGGTKLTVLSSASTKGPSVFPLAPSSKSTSGGTAALGCLVKDYFPEPVTVSWNSGALTSGVHTFPAVLQSSGLYSLSSVVTVPSSSLGTQTYICNVNHKPSNTKVDKKVEPKSC light 2: not shown | – | – | – | – | – | – | – | – | – | – | – | – | – | – | – | – | – | binding result [10]: no binding
3 | Molecule D: 2+1 IgG CrossFab, inverted, without charge modifications (CH1/CL exchange in CD3 binder, murine CD19 binder 10C1) (bispecific antibody, Same chain layout as molecule B (CD19 VL-CL light chain twice); also called CD19 TCB_10C1; CD19 TCB_10 C1) chain 1: QAVVTQEPSLTVSPGGTVTLTCGSSTGAVTTSNYANWVQEKPGQAFRGLIGGTNKRAPGTPARFSGSLLGGKAALTLSGAQPEDEAEYYCALWYSNLWVFGGGTKLTVLSSASTKGPSVFPLAPSSKSTSGGTAALGCLVKDYFPEPVTVSWNSGALTSGVHTFPAVLQSSGLYSLSSVVTVPSSSLGTQTYICNVNHKPSNTKVDKKVEPKSC chain 2: EVQLQQSGPELVKPGASVKMSCKASGYTFTSYVMHWVKQKPGQGLEWIGYINPYNDGTKFNEKFKGKATLTSDKSSSTAYMELSSLTSEDSAVYYCTRGVYYYGSSQGDYWGQGTTLTVSSASTKGPSVFPLAPSSKSTSGGTAALGCLVKDYFPEPVTVSWNSGALTSGVHTFPAVLQSSGLYSLSSVVTVPSSSLGTQTYICNVNHKPSNTKVDKKVEPKSCDKTHTCPPCPAPEAAGGPSVFLFPPKPKDTLMISRTPEVTCVVVDVSHEDPEVKFNWYVDGVEVHNAKTKPREEQYNSTYRVVSVLTVLHQDWLNGKEYKCKVSNKALGAPIEKTISKAKGQPREPQVCTLPPSRDELTKNQVSLSCAVKGFYPSDIAVEWESNGQPENNYKTTPPVLDSDGSFFLVSKLTVDKSRWQQGNVFSCSVMHEALHNHYTQKSLSLSP chain 3: not shown chain 4: DAVMTQTPLSLPVSLGDQASISCRSSQSLENSNGNTYLNWYLQKPGQSPQLLIYRISNRFSGVPDRFNGSGSGTDFTLKISRVEAEDLGVYFCLQVTHVPWTFGGGTKLEIKRTVAAPSVFIFPPSDEQLKSGTASVVCLLNNFYPREAKVQWKVDNALQSGNSQESVTEQDSKDSTYSLSSTLTLSKADYEKHKVYACEVTHQGLSSPVTKSFNRGEC | 2.1 pM | 3.4 pM | 7.7 nM and 1.49 µg/mL | 2.2 ng/mL | 11.1 pM | 11.8 pM | 9.7 pM | 3 pM | 7.2 pM | 5.6 pM | 5.2 pM | 3.8 pM | 10.5 pM | 6.7 pM | 5.9 pM | 4.5 pM | 5.7 pM | EC50 [11]: 3000 to 8000 pM
